Test in all cases: ELISA
Substrate in the assay “ELISA”: FN-B, recombinant human fibronectin extra domain B (EDB) as a single domain
Particulars: chain shown with the change; pre-coated human FN-B; detection with HRP-conjugated anti-S-tag antibody; parent: est. 100; read off a plot.

The target in assay [1] is FN-67B89, human fibronectin EDB flanked by its surrounding type III domains. As to conditions: chain shown with the change, FN-67B89 coated 1 µg/well, read off a plot.
Assay [2] concerns the target FN-6789, human fibronectin type III domains 6–9 without EDB. Particulars: chain shown with the change, FN-6789 coated 1 µg/well, read off a plot.

Numbering of substitutions follows the chain as printed. Names and notes keep the numbering of the source.

Sequence of FN-B, recombinant human fibronectin extra domain B (EDB) as a single domain (chain, as listed by the source): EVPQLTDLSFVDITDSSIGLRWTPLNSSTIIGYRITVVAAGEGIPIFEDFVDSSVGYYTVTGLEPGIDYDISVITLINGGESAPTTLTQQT
Sequence of FN-67B89, human fibronectin EDB flanked by its surrounding type III domains (chain, as listed by the source): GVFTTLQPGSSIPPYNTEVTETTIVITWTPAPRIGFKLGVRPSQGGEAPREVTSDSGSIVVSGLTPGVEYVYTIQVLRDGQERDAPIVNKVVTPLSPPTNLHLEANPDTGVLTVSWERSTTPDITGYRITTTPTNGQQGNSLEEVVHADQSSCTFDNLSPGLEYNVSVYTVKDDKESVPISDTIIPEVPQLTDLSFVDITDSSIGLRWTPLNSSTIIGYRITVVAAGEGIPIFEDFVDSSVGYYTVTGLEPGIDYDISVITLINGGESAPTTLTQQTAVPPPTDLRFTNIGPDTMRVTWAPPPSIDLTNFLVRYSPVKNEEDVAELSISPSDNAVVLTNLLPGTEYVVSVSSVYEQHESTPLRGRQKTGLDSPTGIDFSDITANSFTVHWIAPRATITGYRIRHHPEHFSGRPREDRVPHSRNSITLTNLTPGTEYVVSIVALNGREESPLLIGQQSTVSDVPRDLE
Sequence of FN-6789, human fibronectin type III domains 6–9 without EDB (chain, as listed by the source): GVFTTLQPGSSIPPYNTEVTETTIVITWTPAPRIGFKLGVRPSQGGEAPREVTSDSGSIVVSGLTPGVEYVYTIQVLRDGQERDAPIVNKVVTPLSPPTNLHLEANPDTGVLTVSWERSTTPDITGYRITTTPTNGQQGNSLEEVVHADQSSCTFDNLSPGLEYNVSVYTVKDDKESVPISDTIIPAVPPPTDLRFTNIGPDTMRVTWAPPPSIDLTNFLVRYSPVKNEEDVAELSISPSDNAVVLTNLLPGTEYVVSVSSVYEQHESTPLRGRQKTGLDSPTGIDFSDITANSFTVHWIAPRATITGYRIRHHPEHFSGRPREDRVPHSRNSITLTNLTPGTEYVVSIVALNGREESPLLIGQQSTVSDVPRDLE

B1: Trx-MC-FN-010, Thioredoxin-A fusion of cystine-knot miniprotein MC-FN-010 P1A (peptide)
chain: AMCTQRKNRIRLCRRDSDCTGACICRGNGYCG
As for B1, the percent of parent in “ELISA” came out at 130%.

B2: Trx-MC-FN-010, Thioredoxin-A fusion of cystine-knot miniprotein MC-FN-010 K7A (peptide)
chain: B1 chain with A1P, K7A
With B2, the response (Absorbance (450 nm)) in assay [1] (1.56 nM Trx-miniprotein, parent: est. 0.70) was determined as 0.62; in assay [1] (3.13 nM Trx-miniprotein, parent: est. 1.5), 1.1; in assay [1] (6.25 nM Trx-miniprotein, parent: est. 2.2), 1.7; in assay [1] (12.5 nM Trx-miniprotein, parent: est. 3.0) it was 2.4; in assay [1] (25 nM Trx-miniprotein, parent: est. 3.4), 2.9; in assay [1] (50 nM Trx-miniprotein, parent: est. 3.7), 3.1. Moreover, the response (Absorbance (450 nm)) was 0.09 in assay [2] (25 nM Trx-miniprotein, parent: est. 0.30) and 0.13 in assay [2] (50 nM Trx-miniprotein, parent: est. 0.62). Further, the percent of parent in the assay “ELISA” is 320%.

B3: Trx-MC-FN-010, Thioredoxin-A fusion of cystine-knot miniprotein MC-FN-010 T4A (peptide)
chain: B1 chain with A1P, T4A
As for B3, in the assay “ELISA”, the percent of parent amounted to 100%.

B4: Trx-MC-FN-010, Thioredoxin-A fusion of cystine-knot miniprotein MC-FN-010 R14A (peptide)
chain: B1 chain with A1P, R14A
As to B4, in “ELISA”, the percent of parent amounted to 71%.

B5: Trx-MC-FN-010, Thioredoxin-A fusion of cystine-knot miniprotein MC-FN-010 N8A (peptide)
chain: B1 chain with A1P, N8A
In the case of B5, the percent of parent in the assay “ELISA” was found to be 88%.

B6: Trx-MC-FN-010, Thioredoxin-A fusion of cystine-knot miniprotein MC-FN-010 R6A (peptide)
chain: B1 chain with A1P, R6A
Consider B6, for which the percent of parent in the assay “ELISA” came to 83%.

B7: Trx-MC-FN-010, Thioredoxin-A fusion of cystine-knot miniprotein MC-FN-010 Q5A (peptide)
chain: B1 chain with A1P, Q5A
On to B7, for which the percent of parent in the assay “ELISA” was determined as 65%.

B8: Trx-MC-FN-010, Thioredoxin-A fusion of cystine-knot miniprotein MC-FN-010 R9A (peptide)
chain: B1 chain with A1P, R9A
Regarding B8, in “ELISA”, the percent of parent is 5%.

B9: Trx-MC-FN-010, Thioredoxin-A fusion of cystine-knot miniprotein MC-FN-010 R15A (peptide)
chain: B1 chain with A1P, R15A
Turning to B9, the percent of parent in the assay “ELISA” was 61%.

B10: Trx-MC-FN-010, Thioredoxin-A fusion of cystine-knot miniprotein MC-FN-010 M2A (peptide)
chain: B1 chain with A1P, M2A
For B10, in the assay “ELISA”, the percent of parent was 100%.

These data come from paper PMC6962393, “Targeting the tumor vasculature with engineered cystine-knot miniproteins” (Nature Communications, 2020).
